These results are taken from patent US6534281.

The target in experiment [1] is modified C-peptide (human C-peptide having Arg-Arg bound to its N-terminal and Lys-Arg bound to its C-terminal) (human). Description: sandwich immunoassay, two-step, against C-peptide calibration; modified C-peptide 5 ng/ml; CPT-3F-11 on particles, labeled antibody PEP-001.
Experiment [2] has the same target. Description: sandwich immunoassay, one-step, against C-peptide calibration; modified C-peptide 5 ng/ml; CPT-3F-11 on particles, labeled antibody PEP-001.
Experiment [3] has as its target human proinsulin (human) (UniProt P01308). The experiment in a line: sandwich immunoassay, one-step; proinsulin 400 ng/ml; CPT-3F-11 on particles, labeled antibody 9101.
Sequence of UniProt P01308 (P01308 25-110): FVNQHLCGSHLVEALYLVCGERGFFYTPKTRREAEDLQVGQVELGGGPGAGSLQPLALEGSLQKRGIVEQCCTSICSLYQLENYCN
Experiment [4] addresses human C-peptide (human). Description: ELISA on immobilized C-peptide; labeled antibody 1.0 ug/ml, free C-peptide 1.0 ug/ml. In general terms: In an ELISA, binding on a coated surface is turned into a signal by an enzyme label.
Experiment [5] has as its target human proinsulin (human) (UniProt P01308). The experiment in a line: sandwich immunoassay, one-step, against C-peptide calibration; proinsulin 50 ng/ml; CPT-3-F11 on particles, labeled antibody 9101.
Experiment [6] deals with human C-peptide (human). The experiment in a line: ELISA on immobilized C-peptide; labeled antibody 1.0 ug/ml, free C-peptide 10 ug/ml.
Sequence of human C-peptide (human) (peptide, as listed by the source): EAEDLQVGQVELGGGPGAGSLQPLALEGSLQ
Experiment [7] deals with human C-peptide (human). Description: ELISA on immobilized C-peptide; labeled antibody 0.0 ug/ml (blank), free C-peptide 0 ug/ml.
Experiment [8] concerns the target human C-peptide (human). The experiment in a line: ELISA on immobilized C-peptide; labeled antibody 10 ug/ml, free C-peptide 0 ug/ml (reference).
Experiment [9] addresses human C-peptide (human). Description: ELISA on immobilized C-peptide; labeled antibody 10 ug/ml, free C-peptide 0 ug/ml.
The target of experiment [10] is human proinsulin (human) (UniProt P01308). The experiment in a line: sandwich immunoassay, two-step; proinsulin 200 ng/ml; CPT-3F-11 on particles, labeled antibody 9101.
Experiment [11] shares this target. Description: sandwich immunoassay, one-step, against C-peptide calibration; proinsulin 200 ng/ml; CPT-3-F11 on particles, labeled antibody PEP-001.
Experiment [12] has the same target. Description: sandwich immunoassay, one-step, against C-peptide calibration; proinsulin 200 ng/ml; CPT-3-F11 on particles, labeled antibody 9101.

Sequence of modified C-peptide (human C-peptide having Arg-Arg bound to its N-terminal and Lys-Arg bound to its C-terminal) (human) (peptide, as listed by the source): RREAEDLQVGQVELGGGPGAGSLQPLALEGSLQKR

Consider “anti-human C-peptide monoclonal antibody CPT-3-F11 (Dako)”, for which the Cross-reactivity (%) to Modified C-peptide in experiment [1] is 53.2%; in experiment [2], 62.7%. Also, the results for the counts of chemiluminescence in the experiment with human proinsulin (human) [3] and with human proinsulin (human) [10] were 118000 counts and 42500 counts, respectively. Moreover, the Absorbance (absorbance at 405 nm) in the experiment with human C-peptide (human) [4] was 0.062; with human C-peptide (human) [6], 0.003; in the experiment with human C-peptide (human) [7] it was 0; with human C-peptide (human) [9] it was 2.17. Further, the Binding Ratio stood at 3.2% with human C-peptide (human) [4], 0.2% in the experiment with human C-peptide (human) [6], 0% in the experiment with human C-peptide (human) [7] and 100% with human C-peptide (human) [8]. Moreover, the Cross-reactivity (%) to Human Proinsulin with human proinsulin (human) [5] was 0.9%; in the experiment with human proinsulin (human) [11], > 30%; with human proinsulin (human) [12], 2.6%.
